Results published in the supplement of paper PMC10126150.
± gives the standard deviation of the averaged measurements.

System: ATP
Assay: switch fluorescence ratio, 500 uM ATP over buffer (Cy3 cluster intensity, sum of 5 cycles each) (fold (ratio)); higher = stronger signal-on switching upon ATP binding; sequences stand for … in TCGTCGGCAGCGTCAGATGTGTATAAGAGACAGTTTTTTTTTTTTTTTTTTTTTTTTT…TC
Conditions: aptamer strand: ATP DNA aptamer (quencher-CACCTGGGGGAGTATTGCGGAGGAAGG + anchor), 100 nM annealed; ATP concentration: 500 uM
Summary of the method: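 Five buffer/ATP imaging cycles were run on Cy3-labelled switching-strand clusters on a modified Illumina MiSeq flow-cell, with NaOH stripping and re-annealing between cycles. In each cycle, clusters annealed to 100 nM quencher-labelled ATP aptamer were imaged in selection buffer, then after 15 min with 500 uM ATP at 22 °C. Per cluster, the fluorescence ratio is summed target-cycle over summed buffer-cycle Cy3 intensity, averaged per switch-domain sequence. Only clusters within 100-1000 RFU were kept.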
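Note: ATP exposure 15 min at 22 °C before imaging.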

Row | Sequence | switch fluorescence ratio
1 | TTTTGGCGGC | 0.9504 ± 0.0056
2 | TTTTGGCTTG | 0.9884 ± 0.0012
3 | TTTTGGGACC | 0.992 ± 0.037
4 | TTTTGGGATA | 1.03 ± 0.025
5 | TTTTGGGATC | 0.996 ± 0.016
6 | TTTTGGGCCA | 1.04 ± 0.018
7 | TTTTGGGGAG | 1.02 ± 0.029
8 | TTTTGGGGAT | 1.01 ± 0.026
9 | TTTTGGGGGT | 1.03 ± 0.096
10 | TTTTGGTAAT | 1.01 ± 0.014
11 | TTTTGGTGAG | 0.972 ± 0.025
12 | TTTTGGTGGG | 0.9972 ± 0.0074
13 | TTTTGGTTAT | 1.01 ± 0.03
14 | TTTTGTAAGG | 1.011 ± 0.0043
15 | TTTTGTATCG | 0.948 ± 0.052
16 | TTTTGTCAAG | 1.01 ± 0.033
17 | TTTTGTCAAT | 1.1 ± 0.13
18 | TTTTGTCGGT | 0.9667 ± 0.0042
19 | TTTTGTGGAA | 0.998 ± 0.027
20 | TTTTGTGGGA | 1.01 ± 0.031
21 | TTTTGTGGTT | 1.02 ± 0.065
22 | TTTTGTGTTA | 0.997 ± 0.033
23 | TTTTGTTATG | 0.9903 ± 0.0085
24 | TTTTGTTCGG | 0.99 ± 0.029

Row | Sequence | switch fluorescence ratio
25 | TTTTGTTGGG | 0.991 ± 0.03
26 | TTTTGTTGTA | 0.996 ± 0.024
27 | TTTTGTTGTT | 0.995 ± 0.035
28 | TTTTGTTTAT | 1.01 ± 0.058
29 | TTTTGTTTCT | 0.992 ± 0.027
30 | TTTTGTTTTA | 1 ± 0.015
31 | TTTTTAAAAA | 1.01 ± 0.059
32 | TTTTTAAAGC | 0.995 ± 0.038
33 | TTTTTAACGG | 1.01 ± 0.024
34 | TTTTTAAGCA | 1.02 ± 0.034
35 | TTTTTAAGGC | 1.02 ± 0.032
36 | TTTTTAAGTC | 0.985 ± 0.026
37 | TTTTTAATCC | 1.05 ± 0.017
38 | TTTTTACATC | 1 ± 0.021
39 | TTTTTACCCT | 1.08 ± 0.067
40 | TTTTTACGGA | 1.02 ± 0.043
41 | TTTTTACGGG | 1.02 ± 0.043
42 | TTTTTACTGC | 0.997 ± 0.029
43 | TTTTTAGAAT | 0.993 ± 0.027
44 | TTTTTAGAGT | 0.985 ± 0.026
45 | TTTTTAGCGT | 0.995 ± 0.027
46 | TTTTTAGGAG | 1 ± 0.035
47 | TTTTTAGGTC | 1.1 ± 0.21
48 | TTTTTAGGTG | 1.27 ± 0.2

Row | Sequence | switch fluorescence ratio
49 | TTTTTAGTAG | 1.01 ± 0.03
50 | TTTTTATATG | 0.999 ± 0.02
51 | TTTTTATCAA | 1.01 ± 0.041
52 | TTTTTATCGG | 1.01 ± 0.024
53 | TTTTTATTGG | 0.985 ± 0.025
54 | TTTTTATTTC | 1 ± 0.019
55 | TTTTTATTTT | 1.01 ± 0.074
56 | TTTTTCAACT | 1.03 ± 0.036
57 | TTTTTCAGGA | 0.975 ± 0.024
58 | TTTTTCAGGC | 0.969 ± 0.055
59 | TTTTTCATAA | 0.999 ± 0.027
60 | TTTTTCATCC | 1.18 ± 0.31
61 | TTTTTCATTT | 1.01 ± 0.023
62 | TTTTTCCAAC | 1.02 ± 0.012
63 | TTTTTCCCGC | 1.07 ± 0.053
64 | TTTTTCCTCT | 1.036 ± 0.0026
65 | TTTTTCGGCA | 1.31 ± 0.43
66 | TTTTTCTCAG | 1.01 ± 0.031
67 | TTTTTCTGGG | 0.977 ± 0.0099
68 | TTTTTCTTGT | 1.01 ± 0.047
69 | TTTTTCTTTT | 0.993 ± 0.029
70 | TTTTTGACTG | 0.994 ± 0.075
71 | TTTTTGAGAT | 0.994 ± 0.03
72 | TTTTTGAGCG | 1.04 ± 0.0024

Row | Sequence | switch fluorescence ratio
73 | TTTTTGATGT | 0.994 ± 0.022
74 | TTTTTGCGGC | 0.999 ± 0.03
75 | TTTTTGCTGC | 0.999 ± 0.024
76 | TTTTTGGAGA | 0.994 ± 0.025
77 | TTTTTGGCCG | 1.06 ± 0.034
78 | TTTTTGGCTG | 0.9818 ± 0.0049
79 | TTTTTGGTTG | 1.01 ± 0.012
80 | TTTTTGGTTT | 1.02 ± 0.083
81 | TTTTTGTAGA | 1.01 ± 0.022
82 | TTTTTGTGTA | 0.969 ± 0.012
83 | TTTTTGTT | 0.99 ± 0.0068
84 | TTTTTGTTGG | 1 ± 0.034
85 | TTTTTGTTGT | 1.01 ± 0.052
86 | TTTTTGTTT | 0.988 ± 0.01
87 | TTTTTTAAAG | 0.99843 ± 0.00078
88 | TTTTTTACCT | 1.2 ± 0.015
89 | TTTTTTAGAA | 1.01 ± 0.025
90 | TTTTTTAGAC | 1.04 ± 0.08
91 | TTTTTTAGC | 1.02 ± 0.03
92 | TTTTTTAGCA | 1.02 ± 0.023
93 | TTTTTTAGGT | 0.99 ± 0.03
94 | TTTTTTAGTC | 1 ± 0.04
95 | TTTTTTAGTT | 0.992 ± 0.025
96 | TTTTTTATAG | 1 ± 0.038

Row | Sequence | switch fluorescence ratio
97 | TTTTTTATGT | 0.995 ± 0.029
98 | TTTTTTATT | 0.963 ± 0.013
99 | TTTTTTATTA | 0.986 ± 0.023
100 | TTTTTTCAAC | 1.15 ± 0.26
101 | TTTTTTCACT | 1.17 ± 0.34
102 | TTTTTTCATT | 1.02 ± 0.052
103 | TTTTTTCCCA | 1.01 ± 0.011
104 | TTTTTTCTAT | 0.996 ± 0.067
105 | TTTTTTGAAA | 1 ± 0.054
106 | TTTTTTGACC | 1.02 ± 0.044
107 | TTTTTTGACT | 0.995 ± 0.04
108 | TTTTTTGAGA | 0.975 ± 0.017
109 | TTTTTTGATT | 1.01 ± 0.02
110 | TTTTTTGGGT | 0.994 ± 0.024
111 | TTTTTTGTTC | 1.14 ± 0.3
112 | TTTTTTGTTG | 0.987 ± 0.029
113 | TTTTTTT | 0.9671 ± 0.0074
114 | TTTTTTTGTA | 1.01 ± 0.042
115 | TTTTTTTTGT | 1 ± 0.035
116 | TTTTTTTTT | 1.01 ± 0.021
